PMC4422123, “The peroxisomal protein import machinery displays a preference for monomeric substrates” (Open Biology, 2015)

Columns and labels:
[1] = biological target: acyl-CoA oxidase 1 (ACOX1), untagged, in vitro synthesized (mouse) (UniProt Q9R0H0); test: sucrose gradient centrifugation; 35S-labelled protein synthesized (30 min ACOX1, 45 min UOX) and chased for 4 h with cycloheximide without PEX5; 5-30% sucrose in buffer B, 39 000 r.p.m., 29 h, 4°C
[2] = biological target: the molecule itself; test: as above

Row | Molecule | stoichiometry N [1] | stoichiometry N [2]
1 | acyl-CoA oxidase 1 (ACOX1), untagged, in vitro synthesized (from UniProt Q9R0H0 1-661) (natural protein) | 2 | –
2 | urate oxidase (UOX), untagged, in vitro synthesized (natural protein, mouse, UniProt P25688 1-303, looked up, 35S-methionine labelled, mouse urate oxidase, cDNA amplified with primers from the start codon to the stop codon, in pGEM4; also called mUOX; monomeric UOX; source: in vitro translated (rabbit reticulocyte lysate, TnT T7 QuickCoupled kit), not purified) MAHYHDNYGKNDEVEFVRTGYGKDMVKVLHIQRDGKYHSIKEVATSVQLTLRSKKDYLHGDNSDIIPTDTIKNTVHVLAKLRGIRNIETFAMNICEHFLSSFNHVTRAHVYVEEVPWKRFEKNGIKHVHAFIHTPTGTHFCEVEQMRNGPPVIHSGIKDLKVLKTTQSGFEGFLKDQFTTLPEVKDRCFATQVYCKWRYQRRDVDFEAIWGAVRDIVLQKFAGPYDKGEYSPSVQKTLYDIQVLSLSQLPEIEDMEISLPNIHYFNIDMSKMGLINKEEVLLPLDNPYGKITGTVKRKLPSRL | – | 4
